Columns and labels:
CyPA [1] = biological target: T1, CyPA (Homo sapiens, UniProt P62937); assay: Surface plasmon resonance (BIAcore) binding of Vpr peptides to immobilized recombinant CyPA; conditions: 25° C.; for binding to CyPA: peptide 1 to 250 μM, immobilized recombinant CyPA
T1 construct: purchased Sigma
Procedure: Surface plasmon resonance biosensor analysis (BIAcore-Spectroscopy) was applied to analyze the molecular aspects that govern interaction of Vpr with CyPA. For the first experiment, a novel peptide comprising the first 40 residues of the Vpr protein derived from the isolate HIV-1NL4-3 was used to study the interaction with CyPA.
Surface plasmon resonance measurements were performed at 25° C. using a BIACORE 2000 (BIAcore AB, Upsala Sweden) equipped with a CM5 research-grade sensor chip. […] The peptide Vpr^1-40 was dissolved at concentrations ranging from 1 to 250 μM in a running buffer (10 mM Hepes, 150 mM NaCl, 50 μM EDTA, 0.005% Tween 20, pH 7.4) and was injected over the flow cells containing CyPA bound to the chip matrix at a flow rate of 5 μl/min. Data were collected at a rate of 2.5 Hz during the 120 s association and dissociation phase. Vpr^1-40 interactions reached equilibrium rapidly and dissociation completely within 30 seconds. Results were corrected by the RU-values of the reference cell (without CyPA) to exclude unspecific binding of Vpr to the chip matrix. The experiment was repeated at least three times with two different charges of peptide and CyPA and reproducible results were obtained.
Synthetic Vpr^1-40 and mutants carrying Pro to Asn exchanges at either amino acid positions 5, 10 and 14 (P^5,10,14 to N ) or at position 35 (P^35 to N) or at all four positions (P^5,10,14,35 to N) were purified to homogeneity, and tested for binding to immobilized recombinant CyPA using the same surface plasmon resonance biosensor system. […] Thus, among prolines at positions 5, 10, 14, and 35 of Vpr^1-40, only proline-35 is essential for binding to CyPA.

CyPA [2] = biological target: T1, CyPA; assay: Far-Western blot binding of Vpr to CyPA bound to nitrocellulose
Procedure: Investigation of full length Vpr^1-96 was not possible by BIAcore as the full length Vpr protein tends to undergo self association and protein precipitation, that all together yielded false positive binding signals. As an alternative we investigated the binding of Vpr to CyPA bound to nitrocellulose.
For the purpose of Far-Western Blot technique, purified recombinant CyPA was separated in a 15% SDS PAGE at a concentration of ˜150 ng CyPA per lane. Proteins were electro transferred onto nitrocellulose and individual strips of this CyPA-containing Western blot were blocked for 4 hours with 3% BSA in TBS. Strips were then incubated for 12 hrs at 4° C. with the peptide Vpr^1-96 at a concentration of 1 μg/ml, CyPA strips were incubated either in the absence of any detergent, or under more stringent conditions in TBS/T containing 0.5% Triton X100™ non-ionic detergent. Finally, strips were washed tree times in TBS/T for 10 minutes and bound Vpr was identified with anti-Vpr^1-96 (polyclonal antibodies raised in rabbits) followed by anti-rabbit IgG horse radish peroxidase (HRP) conjugate and enhanced chemiluminescence (ECL) staining. As a control, the CypA binding protein, HIV-1 capsid p24 was tested in parallel.

CyPA [3] = biological target: T1, CyPA; assay: In vitro CyPA/Vpr complex formation, non-reducing SDS-PAGE and Western blot; assay type: binding
From the text: […] Proteins were separated on a 14% polyacrylamide gel in SDS (without reducing agents), by PAGE. Proteins were detected by Western blotting after transfer of the proteins from the gel to membranes. CyPA and Vpr proteins were detected using anti-Vpr and anti-CyPA antibodies (Calbiochem).

T1 sequence (P62937 whole entry): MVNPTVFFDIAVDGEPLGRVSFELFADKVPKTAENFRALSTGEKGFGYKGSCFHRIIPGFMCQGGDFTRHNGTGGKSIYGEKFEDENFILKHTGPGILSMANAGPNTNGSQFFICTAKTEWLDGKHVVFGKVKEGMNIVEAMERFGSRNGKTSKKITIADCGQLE

Vpr^1-20: very N-terminal fragment of Vpr
binding to CyPA (CyPA [1]): did not bind to CyPA

Pro-35 to Asn of Vpr^21-40: Vpr^21-40 with Pro-35 mutated to Asn
binding to CyPA (CyPA [1]): complete loss of CyPA binding

P^5,10,14 to N (MEQANEDQGNQRENHNEWTL; Vpr 1-20; UniProt P69725 1-20, looked up, variant P5N P10N P14N)
binding to CyPA (CyPA [1]): retained dose-dependent binding to CyPA

Vpr^1-40: peptide comprising the first 40 residues of the Vpr protein derived from the isolate HIV-1NL4-3
time to complete dissociation from CyPA (CyPA [1]): ≤ 30 s
binding to CyPA (CyPA [1]): concentration dependent binding to CyPA

Vpr^21-40: smaller fragment of Vpr
binding to CyPA (CyPA [1]): strong and dose-dependent binding to CyPA

Vpr^1-96: full length Vpr peptide
binding to CyPA (Far-Western) (CyPA [2]; 1 μg/ml peptide, absence of detergent): binds to CyPA
binding to CyPA (Far-Western) (CyPA [2]; presence of 0.5% TritonX100 non-ionic detergent): low affinity
binding to CyPA (Far-Western) (CyPA [2]; presence of 0.5% TritonX100 non-ionic detergent, listed as Vpr): reduced
complex formation with CyPA (CyPA [3]; 1 μg each, 22° C., 12 hours, no reducing agent): formation of a novel approximately 29 kDa product
complex formation with CyPA (CyPA [3]; with reducing agent (β-mercaptoethanol)): loss of the Vpr/CyPA complex
